Reference: patent US20250296984A1, “THERAPEUTIC AND DIAGNOSTIC AGENTS AND USES THEREOF” (priority 2022, published 2025)

Legend:
[1] = molecular target: BSA (Bos taurus, UniProt P02769); experiment: ELISA, BSA coating (control); assay type: binding; details: ECD1 subclones
Procedure: Microtiter plate wells were coated with 100 μl of the solution containing: (i) Bio-Peptide-N; or (ii) Bio-Peptide-1 and Bio-Peptide-2; at a concentration of between 1-10 μg/ml in coating buffer, consisting of Na2CO3, 1.5 g and NaHCO3, 2.93 g in 1 L of distilled water in pH 9.6, and then incubated for 1-2 hours at room temperature. The plate was washed 3 times in wash buffer consisting of PBS containing 0.05% v/v Tween-20 and blotted with paper towels thereafter. 150 μl of blocking solution containing Phosphate buffered saline (PBS) containing 1% w/v BSA, was added to each well and the plate was incubated for 2 hours at 37° C. The wells were washed 4 times in wash buffer and blotted on paper towels after the last wash. 100 μl of antibody dilution was added to each well and the plate was incubated for 1 hour at 37° C. and thereafter washed 3 times in wash buffer. 100 μl enzyme-conjugated secondary antibody (appropriately diluted in wash buffer) was added to each well and the plate was incubated for 1 hour at 37° C. The wells were then again washed 3 times in wash buffer and blotted with paper towels after the last wash. […] The absorbance values were read immediately at the appropriate wavelength and the data analyzed by Cmax Plus, Molecular Devices, San Jose, CA 95134, USA,

[2] = test system: HCMV infected lung tissue; experiment: Immunohistochemistry (IHC) on human lung tissue; details: normal lung tissue with HCMV DNA positive macrophages
Description: FIG. 12. […] binding in 1:400 dilution (w/v) to HCMV-infected human tissues were studied by using immunohistochemistry analysis (IHC). […] The arrows (in the non-colour version of this figure) mark the US28-13-5G6-1D3 rAb cytoplasmic staining on typical HCMV infected alveolar cells with the characteristic cytomegalo effect in the HCMV positive control slide. […] C. The same macrophages show positive HCMV DNA in the same lung biopsy, whereas there are no HCMV DNA signals in normal alveolar cells, which is coherent with the US28 staining in the same sample. […] E. The IE staining is negative for the alveolar HCMV positive macrophages in normal lung tissue. […] Colour versions of FIG. 12 are also provided alongside the non-colour versions.
FIG. 25. The binding of the N-terminal antibodies to HCMV infected lung tissue and HCMV negative myometrium were studied by IHC. […] C. […] E. Mouse lung tissue with staining IgG was used as negative control antibody. […] As with the US28-13-5G6-1D3 rAb, the ECD1-binding molecules stained typical HCMV infected cells with the characteristic cytomegalo effect, showing strong cytoplasmic or membranous staining in these cells, as the US28 protein is known to be located in cytoplasm and cell membrane, and stained positively for some tissue macrophages, which are known to be carriers of latent or reactivated HCMV.

[3] = test system: human primary cells (adrenal cortical, kidney epithelial, cardiac microvascular endothelial, liver epithelial, vein smooth muscle); experiment: FACS off-target binding to human primary cells; details: FIG. 19 A
Procedure: Primary cells from different tissue origin were cultured in T25 flasks coated with 3 mL Gelatin-Based Coating Solution (Cellbiologeics, 6950) and placed at 37° C. for 1h. Excess solution was aspirated before cell seeding. 15 mL centrifuge tube were prepared with 6 mL preheated complete medium. Primary cells stored in liquid nitrogen were quickly thawed in 37° C. water bath for <1 min, and transferred to the 15 mL centrifuge tube. Cells were centrifuged at 1000 rpm for 5 minutes, before aspirating the supernatant and resuspending the cell pellet in 6 mL complete medium. Resuspended cells were added into the pre-coated T25 flask, and incubated in a humidified incubator at 37° C. with 5% CO2. […]
Flowcytometry was used to analyze cell surface binding by the US28 antibodies. Upon cell harvest, adherent non-infected and US28 overexpressing or HCMV infected cells were washed three times with cell staining buffer (phosphate-buffered saline (PBS (Amresco, Cleveland, 44139, USA) added 0.5% BSA and 0.05% Sodium Azide (NaN3)). The cells were trypisinized and then resuspended in DMEM with 10% FBS to inhibit the action of trypsin. The cells were then pelleted at 400×g for 10 minutes and washed three times in cell staining buffer. Cell viability and cell concentration were measured by tryphan blue viability assay and a cell counter (Countess, Invitrogen, Carlsbad, CA 92008, USA). […]

Sequence of BSA (P02769 25-607): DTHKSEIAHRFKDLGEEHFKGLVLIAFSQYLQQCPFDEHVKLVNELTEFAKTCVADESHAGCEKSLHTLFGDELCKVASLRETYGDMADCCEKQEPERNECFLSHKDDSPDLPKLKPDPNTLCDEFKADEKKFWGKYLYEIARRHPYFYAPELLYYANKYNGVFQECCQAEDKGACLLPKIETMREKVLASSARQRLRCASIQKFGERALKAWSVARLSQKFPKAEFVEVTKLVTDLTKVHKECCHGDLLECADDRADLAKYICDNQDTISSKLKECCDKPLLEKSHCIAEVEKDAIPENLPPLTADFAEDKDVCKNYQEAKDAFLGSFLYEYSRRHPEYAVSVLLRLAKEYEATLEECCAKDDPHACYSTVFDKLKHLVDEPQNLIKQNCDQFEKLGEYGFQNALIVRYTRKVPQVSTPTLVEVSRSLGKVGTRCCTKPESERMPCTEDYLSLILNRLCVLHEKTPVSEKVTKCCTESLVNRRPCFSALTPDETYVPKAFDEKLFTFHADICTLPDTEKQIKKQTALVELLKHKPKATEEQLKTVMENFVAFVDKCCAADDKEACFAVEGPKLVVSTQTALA

Row | Molecule | absorbance, Coating: BSA [1] | IHC staining of normal lung tissue [2] | surface binding on human primary cells [3] [%]
1 | 7B1F3: mouse IgG1 kappa antibody against US28 ECD1 Peptide-N; VH SEQ ID NO: 211, VL SEQ ID NO: 213 (antibody, V domains shown, Mature form of VH sequence of 7B1F3, without the leader sequence; Mature form of VL sequence of 7B1F3, without the leader sequence) VH: EVQLQQSGAELAKPGASVKMSCKASGYTFTNYWMHWVKQRPGQGLEWIGYVNPRTGYTEYNQKFKDKATLTADKSSRTAYMQLSSLTSEDSAVYSCARILNGTGFAYWGQGTLVTVSA VL: DIVLTQSPSSLTVSVGEKFTMSCKSSQSLLYSSNQKNYLAWYQQKPGQSPKLLIYWASTRESGVPDRFTGSGSGTDFTLAISSVKPEDLAIYYCQQYYSFPLTFGAGTKLEIK | 0.0474 | – | –
2 | 13-5G6-1D3: mouse monoclonal IgG1 kappa antibody against US28 ECD3; VH SEQ ID NO: 12, VL SEQ ID NO: 18 (antibody, V domains shown, Mature form of VH sequence of 1D3, without the leader sequence; Mature form of VL sequence of 1D3, without the leader sequence) VH: EVKLVESGGGLVQPGGSLRLACATSGFTFTDYYMSWVRQPPGKALEWLGFIRSKANGYTTEYSASVKGRFTISRDNSQSILYLQMNTLRSEDSATYYCARDERRTAWLAYWGQGTLVTVSA VL: DVLMTQTPLSLPVSLGDQASISCRSSQSIVHSNGNTYLDWYLQKPGQSPKLLIYKVSNRFSGVPDRFSGSGSGTDFTLKISRVEAEDLGVYYCFQGSHVPTWTFGGGTKLEIK | – | positive US28 staining for macrophages, but negative staining for alveolar cells | < 1
